A short description of this series: Hydrolysis kinetics of wild-type Rhodococcus EGC using 2,4-dinitrophenyl lactoside as the substrate. The format is biochemical. On the procedure: FIG. 18 illustrates a Michaelis-Menten curve for wild-type Rhodococcus EGC using 2,4-dinitrophenyl lactoside as the substrate.
FIGS. 19A-19C illustrate variation of kcat, Km, and kcat/Km with increasing detergent concentration for wild-type Rhodococcus EGC.
FIG. 20 illustrates pH rate profile for wild-type Rhodococcus EGC.
Using 2,4-dinitrophenyl lactoside as a substrate, the Rhodococcus M-777 EGC enzyme has a Km of approximately 2 mM, and a kcat of 90 min-1 (FIG. 18). The dependence of the activity on detergent concentration was also investigated. […] The dependence of kcat/Km on detergent concentration leveled off at concentrations greater than 0.5%; increasing the detergent concentration caused a steady increase in both kcat and Km up to a concentration of 1% (FIGS. 19A-C). The pH dependence of the hydrolysis activity was also investigated. As expected, the maximal kcat/Km is observed around pH 5 (FIG. 20).

Where [1] appears, read: substrate 2,4-dinitrophenyl lactoside.

We go through 1 molecule from patent US10294504B2, “Mutant endoglycoceramidases with enhanced synthetic activity” (La Jolla Pharmaceutical Company, priority 2004, dated 2019).

B1: Rhodococcus M-777 EGC: wild-type endoglycoceramidase from Rhodococcus sp. M-777, GenBank AAB67050, SEQ ID NO:3 (protein, listed as Rhodococcus sp.)
chain: MRRTRLVSLIVTGSLVFGGGVAAAQSSLAASGSGSGSGTALTPSYLKDDDGRSLILRGFNTASSAKSAPDGMPQFTEADLAREYADMGTNFVRFLISWRSVEPAPGVYDQQYLDRVEDRVGWYAERGYKVMLDMHQDVYSGAITPEGNSGNGAGAIGNGAPAWATYMDGLPVEPQPRWELYYIQPGVMRAFDNFWNTTGKHPELVEHYAKAWRAVADRFADNDAVVAYDLMNEPFGGSLQGPAFEAGPLAAMYQRTTDAIRQVDQDTWVCVAPQAIGVNQGLPSGLTKIDDPRAGQQRIAYCPHLYPLPLDIGDGHEGLARTLTDVTIDAWRANTAHTARVLGDVPIILGEFGLDTTLPGARDYIERVYGTAREMGAGVSYWSSDPGPWGPYLPDGTQTLLVDTLNKPYPRAVAGTPTEWSSTSDRLQLTIEPDAAITAPTEIYLPEAGFPGDVHVEGADVVGWDRQSRLLTVRTPADSGNVTVTVTPAA
The Km is the substrate concentration at which the rate is half of its maximum. As usually defined, the kcat is the number of substrate molecules converted per active site and unit of time at saturation. For B1, the rate of hydrolysis entry (in the absence of detergent) is recorded as “very low”. For the same molecule, the “pH of maximal kcat/Km” value (pH dependence of the hydrolysis activity) is about 5 pH. For the same molecule, under setting [1], the Km is about 2000 µM and the kcat stood at 1.5 s⁻¹.
